Data reported in patent publication US20170014486A1.

Biological target: natriuretic polypeptide receptor A (Npra), mouse (mouse) (UniProt P18293)
Assay: cell-based or functional assay

Chain of UniProt P18293 (P18293 29-1057 limits assumed): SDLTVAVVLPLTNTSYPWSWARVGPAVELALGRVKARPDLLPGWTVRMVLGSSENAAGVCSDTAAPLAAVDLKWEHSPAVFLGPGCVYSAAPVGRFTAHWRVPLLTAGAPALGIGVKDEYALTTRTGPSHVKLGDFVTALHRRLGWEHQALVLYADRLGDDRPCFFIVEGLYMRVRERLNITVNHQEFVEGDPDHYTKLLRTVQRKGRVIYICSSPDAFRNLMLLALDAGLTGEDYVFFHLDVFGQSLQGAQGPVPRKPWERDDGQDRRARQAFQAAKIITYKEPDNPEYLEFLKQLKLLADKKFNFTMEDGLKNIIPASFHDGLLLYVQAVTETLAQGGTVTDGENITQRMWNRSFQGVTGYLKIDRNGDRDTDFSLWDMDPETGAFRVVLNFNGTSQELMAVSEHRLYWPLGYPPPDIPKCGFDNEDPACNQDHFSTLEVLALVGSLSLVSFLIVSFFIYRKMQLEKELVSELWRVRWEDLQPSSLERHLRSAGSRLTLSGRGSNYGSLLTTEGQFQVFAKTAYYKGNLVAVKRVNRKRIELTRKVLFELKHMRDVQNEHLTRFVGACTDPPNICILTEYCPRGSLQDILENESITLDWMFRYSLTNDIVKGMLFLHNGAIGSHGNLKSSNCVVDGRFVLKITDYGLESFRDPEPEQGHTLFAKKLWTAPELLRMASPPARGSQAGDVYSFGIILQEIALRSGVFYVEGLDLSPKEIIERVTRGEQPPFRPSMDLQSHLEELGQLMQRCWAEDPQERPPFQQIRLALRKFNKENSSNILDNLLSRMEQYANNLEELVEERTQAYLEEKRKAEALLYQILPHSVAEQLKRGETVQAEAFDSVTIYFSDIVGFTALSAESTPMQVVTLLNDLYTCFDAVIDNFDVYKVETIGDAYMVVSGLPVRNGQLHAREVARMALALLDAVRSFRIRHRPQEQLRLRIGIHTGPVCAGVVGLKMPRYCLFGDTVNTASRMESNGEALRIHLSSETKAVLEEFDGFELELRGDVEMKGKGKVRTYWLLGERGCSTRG

**Q.** With Nppb-saporin conjugate as the substance, how does the Npra-positive spinal cord neurons eliminated after intrathecal injection (ISH cell counts) read?
**A.** 70%
